Measurements taken from US20170082635A1.

Experiments:
Histone H4 (human) = Histone H4 (human) (UniProt P62805); assay: in vivo azide-A-DSBSO XL-MS, HEK 293 cells
Histone H3.2 (human) = Histone H3.2 (human) (UniProt Q71DI3); assay: in vivo azide-A-DSBSO XL-MS, HEK 293 cells

unique cross-linked peptides (Histone H4 (human)): 10 peptides
unique cross-linked peptides (Histone H3.2 (human)): 8 peptides
Substance: Histone H2B (core histone, isoforms not told apart)
